Test system: rLDHA (Homo sapiens)
Assay: SPR
Details: His-tag pull-down: protein on beads in 50 mM Na3PO4, 300 mM NaCl, 0.01% Tween-20, pH 8.0, RNA binding 2 h in 3.25 mM Na3PO4, 70 mM NaCl

HULC lncRNA (in vitro transcribed)
Kd: 29 nM
